Test results from the supplement of paper PMC10724198.
± gives the standard deviation of the averaged measurements.

Assays:
[1] = tested on: Saccharomyces cerevisiae; experiment: protein stability index of tFT-peptide fusion (C-terminal peptide) (PSI (0-1 scale)); higher = more stable (slower turnover)
Protocol: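 MPS profiling in S. cerevisiae of the tFT-X12 degron library: putative degron peptides plus stable controls, 12 aa, fused to the C-terminus of a sfGFP-mCherry timer. Cells are FACS-sorted into 8 mCherry/sfGFP bins and deep-sequenced. PSI runs from 0 (unstable) to 1 (stable). Backgrounds are wild type, das1Δ and doa10Δ at 30 °C, and wild type, das1Δ, cdc34-1 and cdc53-1 at 37 °C; 2-3 technical replicates each.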

[2] = tested on: Saccharomyces cerevisiae; experiment: as above; conditions: genetic background: wild type; temperature: 30 C
[3] = genetic background: cdc34-1, temperature: 37 C
[4] = genetic background: cdc53-1, temperature: 37 C
[5] = genetic background: das1 deletion, temperature: 30 C
[6] = genetic background: das1 deletion, temperature: 37 C
[7] = genetic background: doa10 deletion, temperature: 30 C
[8] = genetic background: wild type, temperature: 30 C
[9] = genetic background: wild type, temperature: 37 C
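Note: PSI is a weighted mean of sequencing reads over stability bins, variants kept only with over 10 reads, mCherry proximal and sfGFP distal, peptide attached via GGGS linker.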

| Sequence | protein stability index [1, 3] | protein stability index [1, 4] | protein stability index [1, 5] | protein stability index [1, 6] | protein stability index [1, 7] | protein stability index [1, 8] | protein stability index [1, 9] | protein stability index [2] |
| --- | --- | --- | --- | --- | --- | --- | --- | --- |
| IWYGLFWLRFWV | 0.513 ± 0.044 | 0.572 ± 0.018 | 0.497 ± 0.018 | 0.586 ± 0.015 | 0.444 ± 0.018 | 0.423 ± 0.023 | 0.5368 ± 0.0047 | 0.51 ± 0.055 |
| IYNIIFKYRTIT | 0.525 ± 0.036 | 0.581 ± 0.014 | 0.575 ± 0.0086 | 0.661 ± 0.073 | 0.0671 ± 0.0022 | 0.0987 ± 0.019 | 0.118 ± 0.016 | 0.127 ± 0.084 |
| KCWSGTVMVRLG | 0.675 ± 0.062 | 0.72 ± 0.017 | 0.596 ± 0.013 | 0.723 ± 0.032 | 0.164 ± 0.0099 | 0.191 ± 0.036 | 0.4516 ± 0.0042 | 0.34 ± 0.0068 |
| KERHRNKRKQIA | 0.659 ± 0.011 | 0.741 ± 0.021 | 0.66 ± 0.022 | 0.7046 ± 0.004 | 0.173 ± 0.0077 | 0.205 ± 0.035 | 0.43 ± 0.046 | 0.342 ± 0.038 |
| KERNKISQRKLT | 0.65 ± 0.009 | 0.654 ± 0.034 | 0.666 ± 0.015 | 0.714 ± 0.028 | 0.143 ± 0.023 | 0.185 ± 0.018 | 0.416 ± 0.013 | 0.434 ± 0.024 |
| KFKRLTKFYARQ | 0.555 ± 0.031 | 0.684 ± 0.029 | 0.676 ± 0.032 | 0.618 ± 0.011 | 0.108 ± 0.0012 | 0.132 ± 0.027 | 0.334 ± 0.017 | 0.311 ± 0.0089 |
| KHKIIGKYQRQI | 0.704 ± 0.13 | 0.751 ± 0.02 | 0.629 ± 0.033 | 0.7236 ± 0.0012 | 0.319 ± 0.017 | 0.338 ± 0.017 | 0.576 ± 0.015 | 0.46 ± 0.021 |
| KIIKERIRRIKI | 0.653 ± 0.013 | 0.632 ± 0.1 | 0.591 ± 0.032 | 0.71254 ± 0.0005 | 0.153 ± 0.0034 | 0.181 ± 0.049 | 0.286 ± 0.076 | 0.243 ± 0.032 |
| KIRGYLMPLTLL | 0.56 ± 0.037 | 0.6 ± 0.0051 | 0.557 ± 0.027 | 0.709 ± 0.014 | 0.4659 ± 0.0027 | 0.432 ± 0.0072 | 0.548 ± 0.028 | 0.503 ± 0.037 |
| KKKKNIKIKKQI | 0.74 ± 0.17 |  | 0.646 ± 0.034 | 0.711 ± 0.084 | 0.184 ± 0.025 | 0.215 ± 0.023 | 0.336 ± 0.12 | 0.276 ± 0.054 |
| KLKTSHILIKQT | 0.665 ± 0.059 | 0.729 ± 0.0099 | 0.606 ± 0.029 | 0.716 ± 0.024 | 0.1562 ± 0.0013 | 0.223 ± 0.033 | 0.452 ± 0.011 | 0.3668 ± 0.0036 |
| KLSLRYLLVSLI | 0.513 ± 0.013 | 0.602 ± 0.045 | 0.456 ± 0.018 | 0.606 ± 0.011 | 0.101 ± 0.0044 | 0.115 ± 0.025 | 0.153 ± 0.012 | 0.188 ± 0.049 |
| KMIVWKESIKRE | 0.689 ± 0.065 | 0.7388 ± 0.001 | 0.633 ± 0.029 | 0.723 ± 0.015 | 0.63 ± 0.014 | 0.667 ± 0.069 | 0.693 ± 0.022 | 0.535 ± 0.15 |
| KNGNVEILIKCT | 0.625 ± 0.081 | 0.6278 ± 0.0034 | 0.485 ± 0.018 | 0.631 ± 0.0084 | 0.377 ± 0.022 | 0.425 ± 0.034 | 0.58 ± 0.018 | 0.4881 ± 0.0027 |
| KRNLLYNIIVWI | 0.404 ± 0.024 | 0.476 ± 0.051 | 0.357 ± 0.025 | 0.524 ± 0.021 | 0.171 ± 0.0049 | 0.179 ± 0.016 | 0.288 ± 0.0061 | 0.299 ± 0.046 |
| KTSVLLCVSTSF | 0.633 ± 0.0073 | 0.645 ± 0.021 | 0.427 ± 0.018 | 0.628 ± 0.015 | 0.442 ± 0.046 | 0.443 ± 0.016 | 0.628 ± 0.015 | 0.441 ± 0.019 |
| LAINVRRELLFF | 0.613 ± 0.0093 | 0.723 ± 0.021 | 0.643 ± 0.029 | 0.7665 ± 0.007 | 0.134 ± 0.001 | 0.148 ± 0.032 | 0.235 ± 0.007 | 0.235 ± 0.043 |
| LARRASCFWVRC | 0.671 ± 0.015 | 0.721 ± 0.011 | 0.633 ± 0.026 | 0.71798 ± 0.00063 | 0.251 ± 0.019 | 0.303 ± 0.017 | 0.559 ± 0.011 | 0.452 ± 0.0072 |
| LAVVCIHAVSSF | 0.51 ± 0.042 | 0.538 ± 0.069 | 0.352 ± 0.018 | 0.533 ± 0.0038 | 0.333 ± 0.02 | 0.373 ± 0.042 | 0.518 ± 0.038 | 0.418 ± 0.077 |
| LCAFLKLFILII | 0.0906 ± 0.018 | 0.141 ± 0.076 | 0.181 ± 0.051 | 0.325 ± 0.017 | 0.235 ± 0.027 | 0.141 ± 0.045 | 0.23 ± 0.034 | 0.239 ± 0.016 |

| Sequence | protein stability index [1, 3] | protein stability index [1, 4] | protein stability index [1, 5] | protein stability index [1, 6] | protein stability index [1, 7] | protein stability index [1, 8] | protein stability index [1, 9] | protein stability index [2] |
| --- | --- | --- | --- | --- | --- | --- | --- | --- |
| LCARVCITFNIV | 0.517 ± 0.033 | 0.578 ± 0.054 | 0.458 ± 0.013 | 0.4975 ± 0.0038 | 0.4011 ± 0.004 | 0.438 ± 0.035 | 0.481 ± 0.014 | 0.457 ± 0.016 |
| LCWLVHFFLWVS | 0.35 ± 0.081 | 0.431 ± 0.0079 | 0.312 ± 0.024 | 0.442 ± 0.023 | 0.253 ± 0.013 | 0.238 ± 0.017 | 0.393 ± 0.0092 | 0.288 ± 0.018 |
| LESYGLRDSTSG | 0.641 ± 0.05 | 0.651 ± 0.032 | 0.638 ± 0.099 | 0.741 ± 0.042 | 0.65 ± 0.0099 | 0.681 ± 0.044 | 0.69 ± 0.018 | 0.621 ± 0.27 |
| LFCVCFYGRIFL | 0.443 ± 0.017 | 0.556 ± 0.038 | 0.335 ± 0.028 | 0.526 ± 0.018 | 0.328 ± 0.018 | 0.334 ± 0.022 | 0.5 ± 0.011 | 0.423 ± 0.0066 |
| LFFCYRVFLLVF | 0.132 ± 0.01 | 0.152 ± 0.0027 | 0.199 ± 0.023 | 0.243 ± 0.006 | 0.121 ± 0.016 | 0.106 ± 0.026 | 0.1719 ± 0.00093 | 0.185 ± 0.019 |
| LFFGFFLIYFLG | 0.428 ± 0.048 | 0.4839 ± 0.0013 | 0.384 ± 0.034 | 0.495 ± 0.0074 | 0.266 ± 0.014 | 0.278 ± 0.018 | 0.424 ± 0.032 | 0.353 ± 0.044 |
| LFFVVFFLLFLL | 0.402 ± 0.0091 | 0.446 ± 0.028 | 0.36 ± 0.026 | 0.477 ± 0.029 | 0.389 ± 0.0099 | 0.337 ± 0.023 | 0.453 ± 0.026 | 0.411 ± 0.025 |
| LFFWFMYLRRLI | 0.252 ± 0.019 | 0.238 ± 0.0044 | 0.403 ± 0.041 | 0.524 ± 0.11 | 0.22 ± 0.0085 | 0.151 ± 0.01 | 0.164 ± 0.0084 | 0.172 ± 0.033 |
| LFHSFFLYCLMS | 0.56 ± 0.017 | 0.5796 ± 0.0031 | 0.616 ± 0.042 | 0.662 ± 0.04 | 0.5838 ± 0.0054 | 0.541 ± 0.022 | 0.6 ± 0.045 | 0.482 ± 0.015 |
| LFIFYCFFFLVR | 0.27 ± 0.059 | 0.379 ± 0.087 | 0.318 ± 0.043 | 0.395 ± 0.0053 | 0.359 ± 0.029 | 0.294 ± 0.0066 | 0.3824 ± 0.002 | 0.352 ± 0.051 |
| LFLEVCFFRLYF | 0.511 ± 0.055 | 0.555 ± 0.037 | 0.447 ± 0.032 | 0.54 ± 0.011 | 0.46 ± 0.02 | 0.453 ± 0.032 | 0.5086 ± 0.0018 | 0.465 ± 0.032 |
| LFLLFLCLSSLF | 0.561 ± 0.0098 | 0.584 ± 0.012 | 0.487 ± 0.02 | 0.591 ± 0.032 | 0.448 ± 0.016 | 0.436 ± 0.035 | 0.5205 ± 0.0021 | 0.435 ± 0.021 |
| LFLLSVNLLLGY | 0.0581 ± 0.025 | 0.0949 ± 0.028 | 0.138 ± 0.035 | 0.191 ± 0.035 | 0.105 ± 0.0095 | 0.112 ± 0.04 | 0.163 ± 0.0081 | 0.237 ± 0.065 |
| LFLPFLPTLALL | 0.795 ± 0.029 | 0.823 ± 0.013 | 0.686 ± 0.032 | 0.7901 ± 0.0056 | 0.598 ± 0.021 | 0.623 ± 0.022 | 0.7359 ± 0.0023 | 0.231 ± 0.012 |
| LFLYDFIALRCS | 0.46 ± 0.016 | 0.55 ± 0.015 | 0.405 ± 0.025 | 0.566 ± 0.032 | 0.2104 ± 0.00034 | 0.24 ± 0.024 | 0.413 ± 0.012 | 0.415 ± 0.038 |
| LFRGVWYYFLVR | 0.486 ± 0.041 | 0.5274 ± 0.0022 | 0.445 ± 0.021 | 0.61 ± 0.0087 | 0.504 ± 0.029 | 0.438 ± 0.029 | 0.586 ± 0.019 | 0.507 ± 0.028 |
| LFSSFFVFRLLV | 0.322 ± 0.031 | 0.432 ± 0.039 | 0.455 ± 0.028 | 0.581 ± 0.0041 | 0.0949 ± 0.016 | 0.0904 ± 0.029 | 0.0847 ± 0.0039 | 0.146 ± 0.011 |
| LFVFVLAGFCCV | 0.352 ± 0.0073 | 0.436 ± 0.017 | 0.32 ± 0.025 | 0.485 ± 0.011 | 0.287 ± 0.0059 | 0.308 ± 0.039 | 0.432 ± 0.041 | 0.381 ± 0.0073 |
| LFVPVFSFGFVC | 0.485 ± 0.0071 | 0.558 ± 0.0077 | 0.415 ± 0.027 | 0.589 ± 0.009 | 0.121 ± 0.02 | 0.145 ± 0.014 | 0.237 ± 0.015 | 0.226 ± 0.011 |
